One data set addresses TDG (Homo sapiens, UniProt Q13569 1-410). Briefly: EMSA.
In data set [1] the target is T1, NEIL2 (Homo sapiens, UniProt Q969S2 1-332).
T1 sequence: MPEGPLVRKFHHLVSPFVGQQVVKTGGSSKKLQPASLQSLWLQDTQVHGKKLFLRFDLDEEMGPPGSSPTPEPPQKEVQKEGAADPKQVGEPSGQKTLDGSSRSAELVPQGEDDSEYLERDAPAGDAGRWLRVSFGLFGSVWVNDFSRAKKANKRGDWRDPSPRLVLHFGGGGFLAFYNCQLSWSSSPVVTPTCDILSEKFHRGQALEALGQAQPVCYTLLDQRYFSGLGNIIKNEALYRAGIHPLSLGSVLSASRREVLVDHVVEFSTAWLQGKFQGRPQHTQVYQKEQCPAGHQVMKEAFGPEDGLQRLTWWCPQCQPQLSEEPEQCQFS
Briefly: EMSA. On the technique in general: Mobility shift assays separate free from complexed probe on a gel.

Data set [2] concerns the target T2, NEIL1 (Homo sapiens, UniProt Q96FI4 1-390). Nature of the data set: EMSA.
The target of data set [3] is T2, NEIL1. Nature of the data set: EMSA. The source holds these as a separate data set.
Data set [4] addresses T1, NEIL2. Nature of the data set: EMSA. The source holds these as a separate data set.
For data set [5], the target named is human thymine DNA glycosylase (TDG), recombinant (human, UniProt Q13569 1-410). Nature of the data set: MST.
human thymine DNA glycosylase (TDG), recombinant, sequence (Q13569 whole entry): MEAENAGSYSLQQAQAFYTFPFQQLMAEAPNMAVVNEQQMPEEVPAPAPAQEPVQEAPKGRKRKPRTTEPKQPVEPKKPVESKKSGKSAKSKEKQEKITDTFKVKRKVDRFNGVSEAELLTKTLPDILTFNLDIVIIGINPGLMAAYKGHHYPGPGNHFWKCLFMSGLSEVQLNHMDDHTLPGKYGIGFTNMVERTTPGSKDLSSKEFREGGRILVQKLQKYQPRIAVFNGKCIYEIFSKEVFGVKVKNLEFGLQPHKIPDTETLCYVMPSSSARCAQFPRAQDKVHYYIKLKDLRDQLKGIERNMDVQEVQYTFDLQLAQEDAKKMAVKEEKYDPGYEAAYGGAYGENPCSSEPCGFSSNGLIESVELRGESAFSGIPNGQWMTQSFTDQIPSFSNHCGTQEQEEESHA

T2 sequence (Q96FI4 whole entry): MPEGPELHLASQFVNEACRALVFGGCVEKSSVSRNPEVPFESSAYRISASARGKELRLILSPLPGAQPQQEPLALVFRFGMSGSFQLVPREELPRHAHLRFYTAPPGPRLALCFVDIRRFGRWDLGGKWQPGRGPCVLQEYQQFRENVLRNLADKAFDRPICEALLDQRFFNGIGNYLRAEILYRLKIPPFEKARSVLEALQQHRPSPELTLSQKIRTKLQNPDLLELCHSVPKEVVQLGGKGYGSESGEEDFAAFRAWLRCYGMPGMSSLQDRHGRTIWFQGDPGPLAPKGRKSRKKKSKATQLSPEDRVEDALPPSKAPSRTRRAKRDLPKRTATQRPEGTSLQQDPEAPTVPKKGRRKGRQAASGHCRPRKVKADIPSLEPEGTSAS
TDG, sequence (Q13569 whole entry): as the sequence (Q13569 whole entry) above

B1: 20mer_5fC duplex (5fC:G) (dsDNA)
DNA 1: CGCTAGGATCCGGCCCCGCC
DNA 2: GGCGGGGCCGGATCCTAGCG
modifications: 5-formylcytosine at position 11 of strand 1 (hemi-modified)
On to B1, for which the binding result in the data set with TDG, with NEIL2 [1] and with NEIL1 [2] was “binds” in each case.

B2: 20mer_5caC duplex (5caC:G) (dsDNA)
DNA 1: CGCTAGGATCCGGCCCCGCC
DNA 2: GGCGGGGCCGGATCCTAGCG
modifications: 5-carboxylcytosine at position 11 of strand 1 (hemi-modified)
On to B2, for which the binding result with TDG, with NEIL2 [1] and in the data set with NEIL1 [2] was “binds” in each case.

B3: 20mer_dC duplex (unmodified) (dsDNA)
DNA 1: CGCTAGGATCCGGCCCCGCC
DNA 2: GGCGGGGCCGGATCCTAGCG
A word on the Kd: it is a measure of binding affinity in units of concentration. A lower Kd goes with a tighter complex. Turning to B3, in the data set with NEIL1 [3], the binding signal is 3 fold lower affinity than AP site duplex. Moreover, in the data set with NEIL2 [4], binding was characterised by a dissociation constant (Kd) of 27 nM.

B4: human NEIL2 DNA glycosylase, recombinant (enzyme, UniProt Q969S2 1-332, looked up)
chain: MPEGPLVRKFHHLVSPFVGQQVVKTGGSSKKLQPASLQSLWLQDTQVHGKKLFLRFDLDEEMGPPGSSPTPEPPQKEVQKEGAADPKQVGEPSGQKTLDGSSRSAELVPQGEDDSEYLERDAPAGDAGRWLRVSFGLFGSVWVNDFSRAKKANKRGDWRDPSPRLVLHFGGGGFLAFYNCQLSWSSSPVVTPTCDILSEKFHRGQALEALGQAQPVCYTLLDQRYFSGLGNIIKNEALYRAGIHPLSLGSVLSASRREVLVDHVVEFSTAWLQGKFQGRPQHTQVYQKEQCPAGHQVMKEAFGPEDGLQRLTWWCPQCQPQLSEEPEQCQFS
As to B4, the binding result in data set [5] is “binds”.

The record behind these values is PMC4894546 (Nature structural & molecular biology, 2016).
